{"source": "patent US20230002480A1", "test_in_all_cases": "cell-based or functional assay", "key": {"[1]": {"target": "HIV-1 Env of pseudovirus 3301.v1.c24 (HIV-1)"}, "[2]": {"target": "HIV-1 Env of pseudovirus Q461.e2 (HIV-1)"}, "[3]": {"target": "HIV-1 Env of pseudovirus 0260.v5.c36 (HIV-1)"}, "[4]": {"target": "HIV-1 Env of pseudovirus 89-F1_2_25 (HIV-1)"}, "[5]": {"target": "HIV-1 Env of pseudovirus CNE20 (HIV-1)"}, "[6]": {"target": "HIV-1 Env of pseudovirus TRO.11 (HIV-1)"}, "[7]": {"target": "HIV-1 Env of pseudovirus 6244_13_B5_4576 (HIV-1)"}, "[8]": {"target": "HIV-1 Env of pseudovirus BJOX025000.01.1 (HIV-1)"}, "[9]": {"target": "HIV-1 Env of pseudovirus HIV-16845-2.22 (HIV-1)"}, "[10]": {"target": "HIV-1 Env of pseudovirus 6535.3 (HIV-1)"}, "[11]": {"target": "HIV-1 Env of pseudovirus 62357_14_D3_4589 (HIV-1)"}, "[12]": {"target": "HIV-1 Env of pseudovirus CNE58 (HIV-1)"}, "[13]": {"target": "HIV-1 Env of pseudovirus Du172.17 (HIV-1)"}, "[14]": {"target": "HIV-1 Env of pseudovirus CNE53 (HIV-1)"}, "[15]": {"target": "HIV-1 Env of pseudovirus CAP210.2.00.E8 (HIV-1)"}, "[16]": {"target": "HIV-1 Env of pseudovirus 6480.v4.c25 (HIV-1)"}, "[17]": {"target": "HIV-1 Env of pseudovirus ZM247v1(Rev-) (HIV-1)"}, "[18]": {"target": "HIV-1 Env of pseudovirus T255-34 (HIV-1)"}, "[19]": {"target": "HIV-1 Env of pseudovirus CAP45.2.00.G3 (HIV-1)"}, "[20]": {"target": "HIV-1 Env of pseudovirus WEAU_d15_410_787 (HIV-1)"}, "[21]": {"target": "HIV-1 Env of pseudovirus AC10.0.29 (HIV-1)"}, "[22]": {"target": "HIV-1 Env of pseudovirus CNE30 (HIV-1)"}, "[23]": {"target": "HIV-1 Env of pseudovirus BF1266.431a (HIV-1)"}, "[24]": {"target": "HIV-1 Env of pseudovirus CNE19 (HIV-1)"}, "[25]": {"target": "HIV-1 Env of pseudovirus 6041.v3.c23 (HIV-1)"}, "[26]": {"target": "HIV-1 Env of pseudovirus 6540.v4.c1 (HIV-1)"}, "[27]": {"target": "HIV-1 Env of pseudovirus CNE8 (HIV-1)"}, "[28]": {"target": "HIV-1 Env of pseudovirus C4118.c09 (HIV-1)"}, "[29]": {"target": "HIV-1 Env of pseudovirus BJOX015000.11.5 (HIV-1)"}, "[30]": {"target": "HIV-1 Env of pseudovirus 249M B10 (HIV-1)"}, "[31]": {"target": "HIV-1 Env of pseudovirus Q842.d12 (HIV-1)"}, "[32]": {"target": "HIV-1 Env of pseudovirus ZM135M.PL10a (HIV-1)"}, "[33]": {"target": "HIV-1 Env of pseudovirus 1054_07_TC4_1499 (HIV-1)"}, "[34]": {"target": "HIV-1 Env of pseudovirus P0402_c2_11 (HIV-1)"}, "[35]": {"target": "HIV-1 Env of pseudovirus CNE52 (HIV-1)"}, "[36]": {"target": "HIV-1 Env of pseudovirus Ce1086_B2 (HIV-1)"}, "[37]": {"target": "HIV-1 Env of pseudovirus CNE17 (HIV-1)"}}}
{"substance": "PGDM1400 (antibody)", "values": [{"measurement": "IC50, titer in TZM.bl cells", "setting": "[1]", "value": 0.048, "unit": "µg/mL"}, {"measurement": "IC80, titer in TZM.bl cells", "setting": "[1]", "value": 0.245, "unit": "µg/mL"}, {"measurement": "IC50", "setting": "[2]", "value": 0.089, "unit": "µg/mL"}, {"measurement": "IC80", "setting": "[2]", "value": 0.572, "unit": "µg/mL"}, {"measurement": "IC50", "setting": "[3]", "value": 0.033, "unit": "µg/mL"}, {"measurement": "IC80", "setting": "[3]", "value": 0.175, "unit": "µg/mL"}, {"measurement": "IC50, titer in TZM.bl cells", "setting": "[4]", "value": 0.001, "unit": "µg/mL"}, {"measurement": "IC80, titer in TZM.bl cells", "setting": "[4]", "value": 0.005, "unit": "µg/mL"}, {"measurement": "IC50", "setting": "[5]", "value": 0.004, "unit": "µg/mL"}, {"measurement": "IC80", "setting": "[5]", "value": 0.014, "unit": "µg/mL"}, {"measurement": "IC50", "setting": "[6]", "value": 0.283, "unit": "µg/mL"}, {"measurement": "IC80", "setting": "[6]", "value": 1.38, "unit": "µg/mL"}, {"measurement": "IC50", "setting": "[7]", "value": "> 50", "unit": "µg/mL"}, {"measurement": "IC80", "setting": "[7]", "value": "> 50", "unit": "µg/mL"}, {"measurement": "IC50, titer in TZM.bl cells", "setting": "[8]", "value": 0.087, "unit": "µg/mL"}, {"measurement": "IC80, titer in TZM.bl cells", "setting": "[8]", "value": 0.573, "unit": "µg/mL"}, {"measurement": "IC50", "setting": "[9]", "value": "> 50", "unit": "µg/mL"}, {"measurement": "IC80", "setting": "[9]", "value": "> 50", "unit": "µg/mL"}, {"measurement": "IC50", "setting": "[10]", "value": "> 50", "unit": "µg/mL"}, {"measurement": "IC80", "setting": "[10]", "value": "> 50", "unit": "µg/mL"}, {"measurement": "IC50", "setting": "[11]", "value": "> 50", "unit": "µg/mL"}, {"measurement": "IC80", "setting": "[11]", "value": "> 50", "unit": "µg/mL"}, {"measurement": "IC50", "setting": "[12]", "value": 0.004, "unit": "µg/mL"}, {"measurement": "IC80", "setting": "[12]", "value": 0.014, "unit": "µg/mL"}, {"measurement": "IC50", "setting": "[13]", "value": 5.18, "unit": "µg/mL"}, {"measurement": "IC80", "setting": "[13]", "value": 22, "unit": "µg/mL"}, {"measurement": "IC50", "setting": "[14]", "value": 0.077, "unit": "µg/mL"}, {"measurement": "IC80", "setting": "[14]", "value": 0.246, "unit": "µg/mL"}, {"measurement": "IC50", "setting": "[15]", "value": 0.034, "unit": "µg/mL"}, {"measurement": "IC80", "setting": "[15]", "value": 0.514, "unit": "µg/mL"}, {"measurement": "IC50, titer in TZM.bl cells", "setting": "[16]", "value": "> 50", "unit": "µg/mL"}, {"measurement": "IC80, titer in TZM.bl cells", "setting": "[16]", "value": "> 50", "unit": "µg/mL"}, {"measurement": "IC50", "setting": "[17]", "value": 0.019, "unit": "µg/mL"}, {"measurement": "IC80", "setting": "[17]", "value": 0.051, "unit": "µg/mL"}, {"measurement": "IC50, titer in TZM.bl cells", "setting": "[18]", "value": 0.654, "unit": "µg/mL"}, {"measurement": "IC80, titer in TZM.bl cells", "setting": "[18]", "value": "> 50", "unit": "µg/mL"}, {"measurement": "IC50", "setting": "[19]", "value": "< 0.001", "unit": "µg/mL"}, {"measurement": "IC80", "setting": "[19]", "value": 0.002, "unit": "µg/mL"}, {"measurement": "IC50", "setting": "[20]", "value": 0.103, "unit": "µg/mL"}, {"measurement": "IC80", "setting": "[20]", "value": 1.37, "unit": "µg/mL"}, {"measurement": "IC50", "setting": "[21]", "value": 0.105, "unit": "µg/mL"}, {"measurement": "IC80", "setting": "[21]", "value": 0.869, "unit": "µg/mL"}, {"measurement": "IC50", "setting": "[22]", "value": "> 50", "unit": "µg/mL"}, {"measurement": "IC80", "setting": "[22]", "value": "> 50", "unit": "µg/mL"}, {"measurement": "IC50", "setting": "[23]", "value": 0.003, "unit": "µg/mL"}, {"measurement": "IC80", "setting": "[23]", "value": 0.011, "unit": "µg/mL"}, {"measurement": "IC50", "setting": "[24]", "value": 0.001, "unit": "µg/mL"}, {"measurement": "IC80", "setting": "[24]", "value": 0.007, "unit": "µg/mL"}, {"measurement": "IC50, titer in TZM.bl cells", "setting": "[25]", "value": 0.013, "unit": "µg/mL"}, {"measurement": "IC80, titer in TZM.bl cells", "setting": "[25]", "value": 0.289, "unit": "µg/mL"}, {"measurement": "IC50, titer in TZM.bl cells", "setting": "[26]", "value": 0.004, "unit": "µg/mL"}, {"measurement": "IC80, titer in TZM.bl cells", "setting": "[26]", "value": 0.028, "unit": "µg/mL"}, {"measurement": "IC50, titer in TZM.bl cells", "setting": "[27]", "value": "< 0.001", "unit": "µg/mL"}, {"measurement": "IC80, titer in TZM.bl cells", "setting": "[27]", "value": 0.01, "unit": "µg/mL"}, {"measurement": "IC50, titer in TZM.bl cells", "setting": "[28]", "value": 0.002, "unit": "µg/mL"}, {"measurement": "IC80, titer in TZM.bl cells", "setting": "[28]", "value": 0.005, "unit": "µg/mL"}, {"measurement": "IC50, titer in TZM.bl cells", "setting": "[29]", "value": 0.52, "unit": "µg/mL"}, {"measurement": "IC80, titer in TZM.bl cells", "setting": "[29]", "value": 10.6, "unit": "µg/mL"}, {"measurement": "IC50", "setting": "[30]", "value": 0.039, "unit": "µg/mL"}, {"measurement": "IC80", "setting": "[30]", "value": 0.786, "unit": "µg/mL"}, {"measurement": "IC50", "setting": "[31]", "value": "< 0.001", "unit": "µg/mL"}, {"measurement": "IC80", "setting": "[31]", "value": 0.002, "unit": "µg/mL"}, {"measurement": "IC50", "setting": "[32]", "value": "> 50", "unit": "µg/mL"}, {"measurement": "IC80", "setting": "[32]", "value": "> 50", "unit": "µg/mL"}, {"measurement": "IC50", "setting": "[33]", "value": "> 50", "unit": "µg/mL"}, {"measurement": "IC80", "setting": "[33]", "value": "> 50", "unit": "µg/mL"}, {"measurement": "IC50, titer in TZM.bl cells", "setting": "[34]", "value": 0.01, "unit": "µg/mL"}, {"measurement": "IC80, titer in TZM.bl cells", "setting": "[34]", "value": 0.033, "unit": "µg/mL"}, {"measurement": "IC50", "setting": "[35]", "value": 1.15, "unit": "µg/mL"}, {"measurement": "IC80", "setting": "[35]", "value": 9.97, "unit": "µg/mL"}, {"measurement": "IC50", "setting": "[36]", "value": "> 50", "unit": "µg/mL"}, {"measurement": "IC80", "setting": "[36]", "value": "> 50", "unit": "µg/mL"}, {"measurement": "IC50", "setting": "[37]", "value": 0.007, "unit": "µg/mL"}, {"measurement": "IC80", "setting": "[37]", "value": 0.021, "unit": "µg/mL"}]}
